Data on 2 molecules can be found in publication PMC10933417.

One series addresses T1, ZNF827 ZnFΔ1-3 (Homo sapiens, UniProt Q17R98 1-373+456-1081, internal_change).
T1 sequence: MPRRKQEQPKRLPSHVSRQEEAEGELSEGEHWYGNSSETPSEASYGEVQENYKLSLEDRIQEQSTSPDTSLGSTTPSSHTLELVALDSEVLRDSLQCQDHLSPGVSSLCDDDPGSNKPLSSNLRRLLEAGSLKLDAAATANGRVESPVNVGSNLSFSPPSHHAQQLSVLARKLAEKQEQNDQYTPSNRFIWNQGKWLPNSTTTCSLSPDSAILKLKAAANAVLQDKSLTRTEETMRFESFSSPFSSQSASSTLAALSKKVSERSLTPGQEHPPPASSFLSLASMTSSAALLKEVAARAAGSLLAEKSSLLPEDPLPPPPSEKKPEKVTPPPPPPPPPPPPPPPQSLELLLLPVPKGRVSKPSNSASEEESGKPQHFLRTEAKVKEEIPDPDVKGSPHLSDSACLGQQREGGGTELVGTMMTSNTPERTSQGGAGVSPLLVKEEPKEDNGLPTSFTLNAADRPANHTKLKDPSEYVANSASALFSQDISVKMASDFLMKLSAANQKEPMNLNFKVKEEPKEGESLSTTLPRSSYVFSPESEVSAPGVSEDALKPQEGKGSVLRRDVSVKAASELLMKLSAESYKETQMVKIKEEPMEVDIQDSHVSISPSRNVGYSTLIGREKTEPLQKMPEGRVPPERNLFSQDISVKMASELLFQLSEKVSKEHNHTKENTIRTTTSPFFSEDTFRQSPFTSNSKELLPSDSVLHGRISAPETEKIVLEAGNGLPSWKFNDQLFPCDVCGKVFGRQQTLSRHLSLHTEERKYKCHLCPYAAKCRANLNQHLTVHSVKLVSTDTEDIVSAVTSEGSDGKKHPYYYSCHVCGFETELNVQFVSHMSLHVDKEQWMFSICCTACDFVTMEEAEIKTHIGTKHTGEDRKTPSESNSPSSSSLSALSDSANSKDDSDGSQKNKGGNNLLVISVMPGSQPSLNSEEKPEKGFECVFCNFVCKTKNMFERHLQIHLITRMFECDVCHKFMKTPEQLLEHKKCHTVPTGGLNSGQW
In words: EMSA; 0.8 mM ZnCl2; 20 mM HEPES-KOH pH 7.9, 100 mM KCl, 0.8 mM ZnCl2, 0.2 mM EDTA, 5% glycerol, 0.5 mM DTT, 0.5 mM PMSF, 6.25 ug/mL poly(dI:dC), 50 ng/uL BSA, ~0.5 nM probe, on ice; gel at 4 °C. The conditions noted are these: protein: recombinant, tags: HaloTag removed by TEV cleavage, label: 32P (T4 PNK end label). For orientation: A gel shift assay detects complexes by their altered migration in electrophoresis.

The target in the next series is T2, ZNF827 wild-type (Homo sapiens, UniProt Q17R98 1-1081).
T2 sequence: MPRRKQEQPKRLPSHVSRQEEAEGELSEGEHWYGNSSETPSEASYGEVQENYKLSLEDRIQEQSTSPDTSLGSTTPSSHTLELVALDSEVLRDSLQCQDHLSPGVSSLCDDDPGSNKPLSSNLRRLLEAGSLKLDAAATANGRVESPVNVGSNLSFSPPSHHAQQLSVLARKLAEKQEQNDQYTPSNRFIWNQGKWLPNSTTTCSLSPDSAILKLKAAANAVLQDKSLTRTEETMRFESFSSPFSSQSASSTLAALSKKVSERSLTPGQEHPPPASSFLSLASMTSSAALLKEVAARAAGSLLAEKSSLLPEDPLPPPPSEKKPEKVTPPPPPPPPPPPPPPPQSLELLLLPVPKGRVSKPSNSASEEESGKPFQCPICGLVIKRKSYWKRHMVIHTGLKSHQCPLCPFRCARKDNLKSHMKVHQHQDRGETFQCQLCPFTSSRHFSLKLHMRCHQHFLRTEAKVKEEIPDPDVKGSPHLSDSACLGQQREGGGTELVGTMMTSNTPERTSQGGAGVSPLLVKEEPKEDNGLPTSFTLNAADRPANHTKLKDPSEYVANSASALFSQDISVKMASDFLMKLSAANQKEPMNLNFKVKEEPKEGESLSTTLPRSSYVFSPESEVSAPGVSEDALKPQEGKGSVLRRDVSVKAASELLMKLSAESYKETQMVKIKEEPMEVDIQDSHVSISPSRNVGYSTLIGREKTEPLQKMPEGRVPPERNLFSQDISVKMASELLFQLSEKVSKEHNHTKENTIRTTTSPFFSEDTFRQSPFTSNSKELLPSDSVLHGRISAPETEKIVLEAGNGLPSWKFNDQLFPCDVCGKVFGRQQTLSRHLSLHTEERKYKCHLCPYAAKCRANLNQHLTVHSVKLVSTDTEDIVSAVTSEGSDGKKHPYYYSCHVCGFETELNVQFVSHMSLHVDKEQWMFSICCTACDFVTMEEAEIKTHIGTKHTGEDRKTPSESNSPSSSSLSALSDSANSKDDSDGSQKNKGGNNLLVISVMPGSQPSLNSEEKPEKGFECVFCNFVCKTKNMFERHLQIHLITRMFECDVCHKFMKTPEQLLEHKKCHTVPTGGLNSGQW
Described as above. The conditions noted are these: protein: recombinant, tags: HaloTag removed by TEV cleavage, label: 32P (T4 PNK end label).

Another series addresses RPA heterotrimer (UniProt P27694;P15927;P35244 1-616;1-270;1-121). The description is as above. The conditions noted are these: protein: recombinant; copies: 1;1;1; label: 32P (T4 PNK end label).
In series [1] the target is ZNF827 wild-type;RPA heterotrimer (Homo sapiens;Homo sapiens?, UniProt Q17R98;P27694;P15927;P35244 1-1081;1-616;1-270;1-121, |). Put plainly: EMSA; 0.8 mM ZnCl2; intermediate band only with both proteins; RPA partly displaces ZNF827; 20 mM HEPES-KOH pH 7.9, 100 mM KCl, 0.8 mM ZnCl2, 0.2 mM EDTA, 5% glycerol, 0.5 mM DTT, 0.5 mM PMSF, 6.25 ug/mL poly(dI:dC), 50 ng/uL BSA, ~0.5 nM probe, on ice; gel at 4 °C. The conditions noted are these: protein: recombinant;recombinant; tags: HaloTag removed by TEV cleavage;; copies: 1;1;1;1; label: 32P (T4 PNK end label).

The next series concerns the target T3, ZNF827 ZnFΔ4-9 (Homo sapiens, UniProt Q17R98 1-816+1070-1081, internal_change).
T3 sequence: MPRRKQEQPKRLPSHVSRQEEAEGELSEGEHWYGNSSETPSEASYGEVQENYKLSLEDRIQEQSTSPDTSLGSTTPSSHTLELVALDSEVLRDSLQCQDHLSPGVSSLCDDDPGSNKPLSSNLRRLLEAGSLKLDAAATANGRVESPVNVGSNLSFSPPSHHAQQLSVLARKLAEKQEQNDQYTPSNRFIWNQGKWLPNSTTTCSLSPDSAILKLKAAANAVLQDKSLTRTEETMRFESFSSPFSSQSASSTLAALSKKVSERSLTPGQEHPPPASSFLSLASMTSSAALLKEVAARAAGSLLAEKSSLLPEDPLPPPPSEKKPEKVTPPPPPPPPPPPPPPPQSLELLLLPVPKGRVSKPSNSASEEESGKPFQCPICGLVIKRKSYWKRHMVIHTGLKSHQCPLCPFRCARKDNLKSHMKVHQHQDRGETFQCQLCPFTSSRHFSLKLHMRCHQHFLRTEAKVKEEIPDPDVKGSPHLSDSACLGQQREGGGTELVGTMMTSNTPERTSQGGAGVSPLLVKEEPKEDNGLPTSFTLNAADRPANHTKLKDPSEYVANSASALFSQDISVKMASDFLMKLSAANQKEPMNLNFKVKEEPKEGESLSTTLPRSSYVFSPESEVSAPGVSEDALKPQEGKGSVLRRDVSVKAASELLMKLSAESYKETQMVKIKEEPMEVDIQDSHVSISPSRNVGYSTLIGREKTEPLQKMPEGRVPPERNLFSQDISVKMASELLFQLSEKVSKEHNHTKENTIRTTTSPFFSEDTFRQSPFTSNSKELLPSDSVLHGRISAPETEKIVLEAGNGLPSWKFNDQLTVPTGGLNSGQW
In words: EMSA; 0.8 mM ZnCl2; 20 mM HEPES-KOH pH 7.9, 100 mM KCl, 0.8 mM ZnCl2, 0.2 mM EDTA, 5% glycerol, 0.5 mM DTT, 0.5 mM PMSF, 6.25 ug/mL poly(dI:dC), 50 ng/uL BSA, ~0.5 nM probe, on ice; gel at 4 °C. The conditions noted are these: protein: recombinant; tags: HaloTag removed by TEV cleavage; label: 32P (T4 PNK end label); blunt.

ZNF827 wild-type;RPA heterotrimer, sequence (P27694 whole entry, chain 2 of 3): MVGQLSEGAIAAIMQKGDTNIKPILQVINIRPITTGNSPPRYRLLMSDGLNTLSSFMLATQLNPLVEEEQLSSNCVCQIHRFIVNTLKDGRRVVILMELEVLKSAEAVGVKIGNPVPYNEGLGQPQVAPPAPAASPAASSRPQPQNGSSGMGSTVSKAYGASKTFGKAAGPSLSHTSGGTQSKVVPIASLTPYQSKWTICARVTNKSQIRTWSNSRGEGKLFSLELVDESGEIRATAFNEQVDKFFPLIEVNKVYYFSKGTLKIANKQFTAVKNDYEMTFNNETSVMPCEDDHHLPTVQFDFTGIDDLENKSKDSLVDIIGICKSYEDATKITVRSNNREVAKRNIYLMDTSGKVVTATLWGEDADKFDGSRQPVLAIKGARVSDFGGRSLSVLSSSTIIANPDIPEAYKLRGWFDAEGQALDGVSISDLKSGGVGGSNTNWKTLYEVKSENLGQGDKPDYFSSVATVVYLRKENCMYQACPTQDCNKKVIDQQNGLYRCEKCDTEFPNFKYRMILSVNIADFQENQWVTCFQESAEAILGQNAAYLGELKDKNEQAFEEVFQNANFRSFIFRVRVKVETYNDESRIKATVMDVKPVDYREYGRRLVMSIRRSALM
ZNF827 wild-type;RPA heterotrimer, sequence (P15927 whole entry, chain 3 of 3): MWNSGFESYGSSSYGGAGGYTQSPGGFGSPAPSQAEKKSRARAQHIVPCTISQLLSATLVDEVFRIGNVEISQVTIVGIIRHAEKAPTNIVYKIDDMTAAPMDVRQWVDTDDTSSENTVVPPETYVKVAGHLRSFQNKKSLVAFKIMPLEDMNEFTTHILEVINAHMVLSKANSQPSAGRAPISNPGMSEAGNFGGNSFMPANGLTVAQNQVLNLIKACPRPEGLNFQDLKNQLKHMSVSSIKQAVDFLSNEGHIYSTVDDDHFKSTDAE
ZNF827 wild-type;RPA heterotrimer, sequence (P35244 whole entry, chain 4 of 3): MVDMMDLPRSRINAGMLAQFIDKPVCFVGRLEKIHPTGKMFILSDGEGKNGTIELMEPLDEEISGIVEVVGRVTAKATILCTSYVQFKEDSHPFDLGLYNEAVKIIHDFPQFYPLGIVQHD
RPA heterotrimer, sequence (P27694 whole entry, chain 1 of 3): as the sequence (P27694 whole entry, chain 2 of 3) above
RPA heterotrimer, sequence (P15927 whole entry, chain 2 of 3): as the sequence (P15927 whole entry, chain 3 of 3) above
RPA heterotrimer, sequence (P35244 whole entry, chain 3 of 3): as the sequence (P35244 whole entry, chain 4 of 3) above

B1: ssDNA pentaprobe (ssDNA)
DNA: CGCTCTATTCTACTGTCCTGTGCATTCAATCGTTGAGTTCGATCTAGTCTCGTCTAACCCTCCCCTGCTCCGCTGGTCTGGCCTCGCCTATCCTACCCAT
As to B1, the binding result in the series with ZNF827 ZnFΔ1-3 is listed as “no binding”; with ZNF827 wild-type it was “binds”; with RPA heterotrimer it was “binds”; in series [1] it was “binds”.

B2: dsDNA pentaprobe (dsDNA)
DNA 1: B1 DNA
DNA 2: ATGGGTAGGATAGGCGAGGCCAGACCAGCGGAGCAGGGGAGGGTTAGACGAGACTAGATCGAACTCAACGATTGAATGCACAGGACAGTAGAATAGAGCG
As for B2, the binding result with ZNF827 ZnFΔ4-9, with ZNF827 ZnFΔ1-3 (blunt) and with ZNF827 wild-type (blunt) was “no binding” in each case.
